Measurements: patent publication US20210340207A1 (Merck Sharp & Dohme, published 2021)
Positions count from the first letter of the chain named. Names may count otherwise. Values belong to the binder of their own block, whether it stands above or below them. *1 amine or outer side, *2 acyl side, *3 side chain or, on linkers, in order; H or OH if unused. [ ]: non-standard residue; d: D form. pAMF = para-azidomethylphenylalanine, [N-]=[N+]=NCc1ccc(C[C@H](N[*:1])C(=O)[*:2])cc1

How the values were obtained:
[1] = molecular target: T1, human IL-2Rαβγc (on Kit225-STAT5 reporter cells, NK-92 cells, primary Treg cells) (human, UniProt P01589 22-272; P14784 27-551; P31785 23-369); assay: cell-based or functional assay
T1 sequence (looked up) 1: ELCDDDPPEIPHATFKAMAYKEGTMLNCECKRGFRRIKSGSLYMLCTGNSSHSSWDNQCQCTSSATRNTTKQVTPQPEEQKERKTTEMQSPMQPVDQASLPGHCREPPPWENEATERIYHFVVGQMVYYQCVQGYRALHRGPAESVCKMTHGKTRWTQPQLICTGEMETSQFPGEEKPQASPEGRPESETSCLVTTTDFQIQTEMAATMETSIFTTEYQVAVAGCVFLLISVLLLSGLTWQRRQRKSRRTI
T1 sequence (looked up) 2: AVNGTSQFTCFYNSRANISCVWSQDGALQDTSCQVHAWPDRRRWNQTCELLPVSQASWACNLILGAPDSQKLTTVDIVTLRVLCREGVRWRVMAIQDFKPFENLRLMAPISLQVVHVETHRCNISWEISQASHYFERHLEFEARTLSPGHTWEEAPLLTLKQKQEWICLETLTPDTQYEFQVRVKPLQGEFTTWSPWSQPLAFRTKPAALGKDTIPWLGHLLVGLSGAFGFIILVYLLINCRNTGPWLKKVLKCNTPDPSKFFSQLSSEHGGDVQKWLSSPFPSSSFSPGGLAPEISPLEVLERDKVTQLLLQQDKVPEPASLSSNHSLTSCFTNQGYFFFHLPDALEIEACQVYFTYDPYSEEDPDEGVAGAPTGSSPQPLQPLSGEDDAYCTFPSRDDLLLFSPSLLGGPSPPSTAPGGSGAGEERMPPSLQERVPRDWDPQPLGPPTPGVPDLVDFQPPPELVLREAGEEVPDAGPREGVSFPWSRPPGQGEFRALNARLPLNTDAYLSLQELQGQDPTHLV
T1 sequence (looked up) 3: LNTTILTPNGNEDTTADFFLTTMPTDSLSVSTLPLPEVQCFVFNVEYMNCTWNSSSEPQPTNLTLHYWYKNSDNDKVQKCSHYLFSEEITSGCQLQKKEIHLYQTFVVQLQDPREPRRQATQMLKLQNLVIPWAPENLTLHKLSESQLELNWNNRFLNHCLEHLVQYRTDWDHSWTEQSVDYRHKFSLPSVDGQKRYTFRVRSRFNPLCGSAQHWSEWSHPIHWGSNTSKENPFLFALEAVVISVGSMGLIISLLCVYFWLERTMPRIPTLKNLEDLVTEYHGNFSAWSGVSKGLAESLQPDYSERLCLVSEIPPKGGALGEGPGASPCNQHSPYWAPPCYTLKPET

Biotin-IL-2Rα-His = molecular target: T2, Biotin-IL-2Rα-His (UniProt P01589 22-213, limits assumed, biotin-labeled (site not stated)); assay: SPR (Biacore T200)
T2 construct: also called biotin-labeled IL-2Rα; not shown: His tag
T2 sequence (looked up): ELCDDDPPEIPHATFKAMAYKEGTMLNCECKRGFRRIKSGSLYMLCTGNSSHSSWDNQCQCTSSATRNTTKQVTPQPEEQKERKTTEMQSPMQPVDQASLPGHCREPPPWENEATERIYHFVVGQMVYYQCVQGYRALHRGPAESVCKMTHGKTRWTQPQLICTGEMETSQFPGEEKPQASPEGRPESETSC

Biotin-IL-2Rβ-His = molecular target: T3, Biotin-IL-2Rβ-His (UniProt P14784 27-239, limits assumed, biotin-labeled (site not stated)); assay: SPR (Biacore T200)
T3 construct: also called biotin-labeled IL-2Rβ; not shown: His tag
T3 sequence (looked up): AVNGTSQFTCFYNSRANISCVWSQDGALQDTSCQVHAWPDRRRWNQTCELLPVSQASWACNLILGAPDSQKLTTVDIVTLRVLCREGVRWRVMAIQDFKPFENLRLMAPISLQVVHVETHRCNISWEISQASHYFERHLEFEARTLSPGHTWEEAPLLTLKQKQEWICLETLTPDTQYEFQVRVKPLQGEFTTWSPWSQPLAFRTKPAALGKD

[2] = molecular target: T4, mouse IL-2Rαβγc (on CTLL2-STAT5 reporter cells) (mouse, UniProt P01590 22-268; P16297 27-539; P34902 23-369); assay: cell-based or functional assay
T4 sequence (looked up) 1: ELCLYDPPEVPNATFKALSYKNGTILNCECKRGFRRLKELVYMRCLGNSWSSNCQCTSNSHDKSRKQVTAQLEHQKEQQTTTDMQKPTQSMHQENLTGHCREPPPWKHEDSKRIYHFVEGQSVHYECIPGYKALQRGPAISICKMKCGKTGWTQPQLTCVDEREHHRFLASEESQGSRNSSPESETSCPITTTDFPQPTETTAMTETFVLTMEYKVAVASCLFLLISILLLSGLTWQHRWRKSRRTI
T4 sequence (looked up) 2: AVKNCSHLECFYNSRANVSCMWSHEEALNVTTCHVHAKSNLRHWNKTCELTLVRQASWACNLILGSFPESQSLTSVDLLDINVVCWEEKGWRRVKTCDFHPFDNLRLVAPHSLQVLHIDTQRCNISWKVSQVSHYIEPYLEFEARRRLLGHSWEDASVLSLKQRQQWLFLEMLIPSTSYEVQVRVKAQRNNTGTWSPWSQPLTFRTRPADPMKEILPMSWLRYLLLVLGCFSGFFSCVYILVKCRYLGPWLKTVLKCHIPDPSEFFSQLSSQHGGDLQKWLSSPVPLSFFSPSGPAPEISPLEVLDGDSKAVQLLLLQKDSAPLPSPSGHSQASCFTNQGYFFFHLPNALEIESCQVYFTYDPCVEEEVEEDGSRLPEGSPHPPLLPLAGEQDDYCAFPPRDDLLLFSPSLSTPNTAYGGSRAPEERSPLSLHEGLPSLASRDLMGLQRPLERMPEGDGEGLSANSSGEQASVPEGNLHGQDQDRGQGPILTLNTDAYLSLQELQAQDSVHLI
T4 sequence (looked up) 3: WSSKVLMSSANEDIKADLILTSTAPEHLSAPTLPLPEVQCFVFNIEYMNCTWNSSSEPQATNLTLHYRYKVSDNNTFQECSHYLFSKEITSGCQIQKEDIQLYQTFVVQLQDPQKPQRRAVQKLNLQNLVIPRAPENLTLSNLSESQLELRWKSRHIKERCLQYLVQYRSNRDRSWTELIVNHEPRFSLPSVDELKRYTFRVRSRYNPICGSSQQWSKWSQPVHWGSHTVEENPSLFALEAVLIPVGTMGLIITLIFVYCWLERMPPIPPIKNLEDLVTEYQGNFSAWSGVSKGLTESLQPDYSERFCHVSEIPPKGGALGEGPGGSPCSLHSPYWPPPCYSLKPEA

[3] = molecular target: T5, human IL-2Rβγc (on DERL-7 cells, U2OS IL2RB/IL2RG cells, CD25 knockout Kit225-STAT5 cells, primary CD8+ CTLs) (human, UniProt P14784 27-551; P31785 23-369); assay: cell-based or functional assay
T5 sequence (looked up) 1: T1 sequence (looked up) 2
T5 sequence (looked up) 2: T1 sequence (looked up) 3

B1: Ald_S4pAMF/R37A/F41K (MUT1) (ligand)
chain: PTS[pAMF]STKKTQLQLEHLLLDLQMILNGINNYKNPKLTAMLTKKFYMPKKATELKHLQCLEEELKPLEEVLNLAQSKNFHLRPRDLISNINVIVLELKGSETTFMCEYADETATIVEFLNRWITFSQSIISTLT
modifications: ends and bridges not checked
Kit225-STAT5 reporter, fold lower activity than aldesleukin [1]: 190 fold

B2: Ald-6HIS_E60T/E61S (ligand)
chain: PTSSSTKKTQLQLEHLLLDLQMILNGINNYKNPKLTRMLTFKFYMPKKATELKHLQCLETSLKPLEEVLNLAQSKNFHLRPRDLISNINVIVLELKGSETTFMCEYADETATIVEFLNRWITFSQSIISTLTGGSHHHHHH
Kd (Biotin-IL-2Rα-His): 800 nM
fold reduction over wt (Biotin-IL-2Rα-His): 80 fold
Kd (Biotin-IL-2Rβ-His): 2000 nM
fold reduction over wt (Biotin-IL-2Rβ-His): 5 fold
CTLL2-STAT5 EC50 [2]: 0.525 nM
U2OS-IL2Rbg EC50 [3]: 1.95 nM

B3: Ald-6HIS_E61S/Y106A (ligand)
chain: B2 chain with T60E, Y106A
Kd (Biotin-IL-2Rβ-His): 2000 nM
fold reduction over wt (Biotin-IL-2Rβ-His): 5 fold
CTLL2-STAT5 EC50 [2]: > 7 nM
U2OS-IL2Rbg EC50 [3]: 2.87 nM

Continued by falling Kd (Biotin-IL-2Rβ-His), values first:

Kd (Biotin-IL-2Rα-His): 2000 nM
fold reduction over wt (Biotin-IL-2Rα-His): 200 fold
Kd (Biotin-IL-2Rβ-His): 1000 nM
fold reduction over wt (Biotin-IL-2Rβ-His): 3 fold
CTLL2-STAT5 EC50 [2]: 1.09 nM
U2OS-IL2Rbg EC50 [3]: 1.96 nM
B6: Ald-6HIS_E60T/E61S/P64A (ligand)
chain: B2 chain with P64A

Kd (Biotin-IL-2Rα-His): 60 nM
fold reduction over wt (Biotin-IL-2Rα-His): 6 fold
Kd (Biotin-IL-2Rβ-His): 700 nM
fold reduction over wt (Biotin-IL-2Rβ-His): 2 fold
CTLL2-STAT5 EC50 [2]: 0.024 nM
U2OS-IL2Rbg EC50 [3]: 0.499 nM
B5: Ald-6HIS_E60T/P64A (ligand)
chain: B2 chain with S61E, P64A

Kd (Biotin-IL-2Rα-His): 500 nM
fold reduction over wt (Biotin-IL-2Rα-His): 50 fold
Kd (Biotin-IL-2Rβ-His): 500 nM
fold reduction over wt (Biotin-IL-2Rβ-His): 1 fold
CTLL2-STAT5 EC50 [2]: 0.213 nM
U2OS-IL2Rbg EC50 [3]: 0.634 nM
B4: Ald-6HIS_E61S/P64A (ligand)
chain: B2 chain with T60E, P64A
